Data: the nanobody polyreactivity screen of Harvey et al. (2022)

assay: yeast display, Sf9 membrane polyspecificity reagent, FACS + sequencing; frameworks hold sequencing errors
Procedure, shortened: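 Nanobodies came from a synthetic yeast display library in Saccharomyces cerevisiae BJ5465, induced with galactose for 36–48 hours and stained for 1 hour at 4 °C with 10% biotinylated, detergent-solubilized Sf9 membrane reagent. Cells were enriched on streptavidin microbeads and then FACS-sorted, with low and high (top ~1%) gates set on anti-HA fluorescence for expression and streptavidin fluorescence for reagent binding. Each polyreactivity label reflects the gate a clone came from. Genes were amplified by colony PCR, sequenced by MiSeq 2 × 250 and filtered by CDR length.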

Row | Sequence | polyreactivity (PSR sort gate)
1 | QVQLVESGGGLLQAGGSLRLSCAASGSILYWNAMGWYRQAPGKERELVAAITGSGGSTSYADSVKGRFTISRDNAKNTVYLQMNSLKPEDTAVYYCAALQFPTPLLLYDSWGQGTQVTVSS | low polyreactivity
2 | QVQLEESGGGLVQAGGSLRLSCAASGSIFIRNAMGWYRQAPGKERELVAAISTIGGRTYYADSVKGRFTISRDNAKNTVYLQMNSQKPEDTAVYYCAAEQGTPSTNWFDYWGQGTQVTVSS | low polyreactivity
3 | QVQLVESGGGLVQAGGSLRLSCAASGSTFPWYAMGWYRQAPGKERELVASITSGTTTNYADSVKGRFTISRDNAKNTVYLQMNSLKPEDTAVYYCAASWVYPYDYWGQGTQVTVSS | low polyreactivity
4 | QVQLVESGGGLVQAGGSLRLSCAASGRTFLRNAMGWYRQAPGKERELVAAITSSGGRTYYADSVKGRFTISRDNAKNTVYLQMNSLKPEDTAVYYCATDTGWPGRDYWGQGTQVTVSS | high polyreactivity
5 | QVQLVESGGGLVQAGGSLRLSCAASGRNFAKYAMGWYRQAPGKERELVAAINSSGGSTYYADSVKGRFTISRDNAKNTVYLQMNSLKPEDTAVYYCAALGIGSYRRYSGYDYWGQGTQVTVSS | low polyreactivity
6 | QVQLVESGGGLVQAGGSLRLSCAASGSTFAYYAMGWYRHAPGKERELVAAISSGGSTYYADSVKGRFTISRDNAKNTVYLQMNSLKPEDTEVYYCNKLWVGKFKRYEFGYWGQGSQVTVSS | low polyreactivity
7 | QLQLQESGGGLVQGGGSLRLSCAASGSIYRSWYMGWYRQAPGKERELVASMTEGATTNYAYSVKAALPLAAITRNPVYLQMDSMKPEDTAVYYRAASFGSTYDLVYWGKGTQVTVSS | high polyreactivity
8 | QVQVVESGGGLVQAGGSLRLSCAASGRIFNYYAMGWYRQAPRKERELVAVISRTGVRTHYADSVKGRFTISRDNAKNTVYLQMNCLKPEDTAVYYCNADSYVFRYDYWGQGTQVTVSS | high polyreactivity
9 | QVHLVDSGGGLVQAGGILRLSCSDYGSTFALYAMGWYRQSPGKVSELVAPITTSGGNTYYADSVKGRFTISRDNAKNTVYLQMNSLKPEDTAVYYCAADPWWSYTSYLRYYNLEMNYWGQGTQVTVSS | high polyreactivity
10 | QVQLVESGVGLVQAGGSLRLSCAASGRIFRYYTMGRYRHAPGKERELVAAITKSGGRTYYADSVKGRFTISRDTANNTVYLQMNSLKPEDTAVYYCAARRLYWGQGTQVTVSS | high polyreactivity
11 | QVQLVESGGGLVQAGGSLRLSCAASGITFRSYAMGWYRQAPGKERELVATISGRGGRTYYADSVKGRFTISRDNAKNTVYLQMNSLKPEDTAVYYCAARLHSYGVGVDYWGQGTQVSVSS | high polyreactivity
12 | QVQLVESGGGLVQAGGSLRLSCAASGRIFTQYTMGWYRQAPGKERELVAAINYSGGRTNYADSVKGRFTISRDIAKNTVYLQMNSLKPEDTAVYYCAAGYRRATYGYWGQGTQVTVSS | high polyreactivity
13 | QVQLVESGGGLVQAGGSLRLSCAASGFTSRYYAMGWYRQAPGKERELVAAISSSGGRTYYADSVKGRFTISRDNAKNTVYLQMNSLKPEDTAVYYCNTGIHARYGGLYGYWGQGTQVTVSS | high polyreactivity
14 | QVQLVESGGGLVQAGGSLRLSCAASGSTFNYNAMGWYRQAPGKERELVADISWRGGITYYADSVKGRFTISRDNAKNTVYLQMNSLKPEDTAVYYCNADAESFDDGYWGQGTQVTVSS | low polyreactivity
15 | QVQLVESGGGLVQAGGSLRLSCAASGRIFHKYTMGRYRQAPGKERELVAAISFSTGNTFYADSVKGRFTISRDTANNTVFLQMNSLKPEDTAVYYCATDVLYPDYDYWGQGTQVTVSS | low polyreactivity
16 | QVQLVESGGGLVQAGGSLRLSFAASGRTFIGYAMGWSRQAPGKERELVAGISWSGGSTYYADSVKGRFTISRDNAKNTVYLQMNSLKPEDTAVYFCAARGRWSTEYRYWGQGTQVTVSS | low polyreactivity
17 | QVQLVDSAGGLVQAGGSLRLICAASGYTQIKNAMGVSRHAPGKERELVAAISSGGSTKYADSVKGRFTISRDNAKNTVYLQMNSLKPEDTAVYYCAKGRVVPYRRYTRIHMYHWGLGTQVTVSS | high polyreactivity
18 | QVQLVESGGGLVQAGGSLRLSCAASGSIFVVNARGWYRQAPGKERELVAAITKNGGRTYYADSVKGRFTISRDNAKNTVYLQMNSLKPEDTAVYYCNTVKGHGGYYGYDYWGQGTQVSVSS | high polyreactivity
19 | QVQLVESGGGLVQAGGSLRLSCAASGSTFSTYTMGWYRQAPGKERELVASISGRGGRTYYADSVKGRFTISRDNAKNTVYLQMNSMKPEDTAVYYCAARYWTLPWYQRGDYWGQGTQVTVSS | high polyreactivity
20 | QVQLVESGGGLVQAGCSLRLSCAASGFIFRLYTMGWYRQAPGKERELVARITRGDSTIYADSVKGRFTISRDNAKNTVYLQMNSLKPEDTAVYYCAKLHRGLPYYSFYRGYYYWGQGTQVTVSS | low polyreactivity
21 | QVQLVESGGGLVQAGGSLRLSCAASGRTFSYYAMGWYRQATGKERELVAAINSSGGRTYYADSVKGRFTISRDNAKNTVYLQMNSLKPEDTAVYYCAARSYSTSSHHGYWGQGTQVTVSS | high polyreactivity

Row | Sequence | polyreactivity (PSR sort gate)
22 | QVQLVESGGGLVQAGGSLRLSCPASGRILPRNAMGWYRQAPGKERELVAGISSDGSTNYADSVKGRFTISRDNAKNTVYLQMNSLKPEDTAVYYCAADGVYDPNLYGYWGQGTQVTVSS | low polyreactivity
23 | QVQLVESGGGLVQAGGSLRLSCAASGRIFPGNALGWYIKAPGKEREFVASINWSVGSTFYADSVKGRFTISRDNAKHTVYLQMNSLKPEDTAVYYCAARTFGYYRSRSFNYWGQGTQVTVSS | high polyreactivity
24 | QVQLVESGGGLVQAGGSLRLSCAASGIIFGVYAMGWYRQAPGKERELVAAIDGNGSSTYYADSVKGRFTISRDNAKNTVYLQMNSLKPEDTAVYYCAARPDYYLWHGYYTRRHYYWGQGTQVTVSA | low polyreactivity
25 | QVQLVESGGGLVQAGGSLRLSCAASGRIFSYYAMGWYRQAPGKERELVAAISYSRTYYADSVKGRFTISRDNAKNTVLLQMNSLKPEDTAVYYCNVKSKYRYGYWGQGTQVTVSS | high polyreactivity
26 | HVQLVESGGGLVQAGGSLRLSCGASGRIFRGNVMGWYRQAPGTERELVAAISWSGGSSYADAVKGRFSISRDNAKNTVYLQMNRLKPDDTAVYYWNADSLDGPKFDYWGQGTQVTVSS | low polyreactivity
27 | QVQLVESGGGLVQAGGSLRLSCAASGSIFDSYAMGWYRQAPGKERELVASISYRGGSTYYADSVKGRFTISRDNAKNTVYLQMNSLKPEDTAVYYCAATPGYHYRSWRYYYWGQGTQVTVSS | high polyreactivity
28 | QVQLVESGGGLVQAGGSLRLTCAASGYIFLQYAMGWYRPAPGKERELVAAITYNGGITYYADSVKGRFTISRDNAKNTVYLQRNSLKPEDTAVYYCAADKNQDVSYVGFDYWGQGTQVTVSS | low polyreactivity
29 | QVQLEESGGGLVQAGGRLRLSCAASGSIFTGYTMGWYRQAPGKERELVASISRRGGRTYYADSVKGRFTISRDNAKNTVYLQMNSLKPEDTAVYYCAVDRVPWRYQDSYNYWGQGTQVTVSS | high polyreactivity
30 | QVQLVESGGGFVQAGGSVRLSCAASGRIFKYAMGWYIPAPGKERELVAAITHKGGSTYADSEKGRFTISRDNAKTTVYIQLNSRKPEDTAVYYCAAYYYYGKGYRRFDYWGQGTQVTVSS | low polyreactivity
31 | QVQLVESVGGLVQAGGSLRLTCAASGIILHDNTMGWYRQAPGKEREVVAAITSDGSTNYADSVKGRFTISRDNAKNTVYLQMNSLKPEDTAVYYCNTDDGPYTEFDYWGQGTQVTVSS | low polyreactivity
32 | QVQLVESGGGLVQAGGSLRLSCAASGLIFTDNTRGWYRQAPGKEREFVADISSSGGITYYADSVKGRFTFSRDNAKNTVYLQMNSLKPEDTAVYYCNAERGYDYLDGYPFFIYDYWGQGTQVTVSS | low polyreactivity
33 | QVQLVESGGGLVQAGGSLRLSCAASGRTLKKNAMGWYRQAPGKEMELVAAITSSTGITYYADSVKGRFTISRDNAKNTVYLQMNSLKPEDTAVYYCAADPPRTLSLIFYSREWSYDYWGQGTQVTVSS | low polyreactivity
34 | QVQLVESGGGLVQAGGSLRLICAASGSIFTYYAMGWYRQAPGKDRDLVAAINWSGGSTYYADSVKGRFTISRDNAKNTVYLQINSLNPEDTAVYYCSNDYYARRHSPRYDYWGQGTQVTVSS | low polyreactivity
35 | QVQLVESGGGLVQAGGSLRLSCAASGSTYTGYTMGWYRQAPGKERELVAAITYRGGSTYYADSVKGRFTISRDNAKNTVYLQMNSQKPEDTPVFYCAAVPEYYEYSPYDYWGQGTQVTVSS | low polyreactivity
36 | QVQLVESGGGLVQAGGSLRLSCAASGSIFGPYAMGWYRQAPGKERELVAAITWTGGRTYYADSVKGRFTISRDNAKNTVYLQMNSLKPEDNAVYYCAADYSPSTWYLYYTLYYYWGQGTQVTVSS | low polyreactivity
37 | QVQLVESGGGLVQAGGTLRLSCAASGSIVVGNTMGWYRQAPGKERELVAAITWSGGRTYYADSVKGRFTISRDIAKNTVYLQMNSLKPEDTAVYYCAAPTYLRRGMDTYNLGYGYWGQGTQVTVSS | high polyreactivity
38 | QVQLVESGGGLVQAGGSLRLSCAASGINFTVYAMGWYRQAPGKVRELVATISRRGGNTFYADSVKGRVTISRDNAKKTVYLKMNSLTPEDTAVYYCAARRYVDYRWDYGYWGQGTQVTVSS | high polyreactivity
39 | QVQLVESGGGLVQAVGSLRLSCAASGSIFDVNAMGWYRQAPGKERELVAAISQRGTRTYYADSVKGRFTISRDNAKNTVYLQMNSLKPEDTAVYYCNRGGWRQYDSWGQGTQVTVSS | high polyreactivity
40 | QVQLVESGGGLVQAGGSLRLSCAASGGIFSYNAMGWSRQAPGKEREWVASITGSGGSTYYADSVKGRFTISRGNAKNTVYLQMNSLKPEDTAVYYCAAQGYWTYWPYLLRLYDYWGQGTQVTVSS | low polyreactivity
41 | QVQLVESGGGLVQAGGSLRLSCAASGNTFYGYAMGWYRPAPGKERELVASITLSGDSTYYADSVKGRFTISRDNAKNTVYLQMNSLKPEDTAVYYCAGVYTYPLGYYHYTYDYWGQGTQVTVSS | low polyreactivity
